Test results from PMC8187647, “Low chorionic villous succinate accumulation associates with recurrent spontaneous abortion risk” (Nature Communications, 2021).

Assays:
[1] = molecular target: T1, SDHC (Homo sapiens, UniProt Q99643); experiment: DARTS (Pronase proteolysis, western blot); type: binding; details: 1 mM aspirin, 1 h; Pronase 1:2000, room temperature, 30 min
T1 construct: recombinant Flag-tagged SDHC, transient expression in HEK293T, anti-Flag M2 purified
T1 sequence (Q99643 30-169): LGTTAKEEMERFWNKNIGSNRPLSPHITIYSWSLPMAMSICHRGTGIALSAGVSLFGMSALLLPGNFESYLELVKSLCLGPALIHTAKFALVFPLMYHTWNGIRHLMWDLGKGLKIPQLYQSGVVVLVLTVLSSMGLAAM

[2] = molecular target: T2, SDHA (Homo sapiens, UniProt P31040); experiment: DARTS (Pronase proteolysis, western blot); type: binding; details: 1 mM aspirin, 1 h; Pronase 1:2000, room temperature, 30 min
T2 construct: recombinant Flag-tagged SDHA, transient expression in HEK293T, anti-Flag M2 purified
T2 sequence (P31040 43-664): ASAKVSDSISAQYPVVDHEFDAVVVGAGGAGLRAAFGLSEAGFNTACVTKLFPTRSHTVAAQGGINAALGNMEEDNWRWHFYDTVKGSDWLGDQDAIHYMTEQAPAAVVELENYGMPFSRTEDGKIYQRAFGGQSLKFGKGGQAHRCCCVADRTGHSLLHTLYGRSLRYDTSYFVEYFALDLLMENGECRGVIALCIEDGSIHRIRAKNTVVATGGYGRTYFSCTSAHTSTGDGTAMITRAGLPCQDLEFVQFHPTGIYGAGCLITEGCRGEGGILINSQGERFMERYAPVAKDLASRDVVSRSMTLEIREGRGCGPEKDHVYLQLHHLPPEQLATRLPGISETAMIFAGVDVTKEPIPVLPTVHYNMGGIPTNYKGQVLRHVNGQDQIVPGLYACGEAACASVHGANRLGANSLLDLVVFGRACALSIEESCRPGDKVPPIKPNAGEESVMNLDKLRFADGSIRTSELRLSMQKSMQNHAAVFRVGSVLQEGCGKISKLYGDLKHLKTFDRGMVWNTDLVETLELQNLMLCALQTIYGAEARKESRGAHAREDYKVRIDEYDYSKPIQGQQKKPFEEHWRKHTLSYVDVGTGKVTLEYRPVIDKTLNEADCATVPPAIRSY

[3] = molecular target: T3, MBD1 (UniProt Q9UIS9 1-605); experiment: EMSA; EMSA Kit (Invitrogen), buffer, salt and pH not stated; 15 °C, 30 min; 6% native polyacrylamide gel; details: protein: recombinant; tags: His6 (pET22b)
T3 sequence: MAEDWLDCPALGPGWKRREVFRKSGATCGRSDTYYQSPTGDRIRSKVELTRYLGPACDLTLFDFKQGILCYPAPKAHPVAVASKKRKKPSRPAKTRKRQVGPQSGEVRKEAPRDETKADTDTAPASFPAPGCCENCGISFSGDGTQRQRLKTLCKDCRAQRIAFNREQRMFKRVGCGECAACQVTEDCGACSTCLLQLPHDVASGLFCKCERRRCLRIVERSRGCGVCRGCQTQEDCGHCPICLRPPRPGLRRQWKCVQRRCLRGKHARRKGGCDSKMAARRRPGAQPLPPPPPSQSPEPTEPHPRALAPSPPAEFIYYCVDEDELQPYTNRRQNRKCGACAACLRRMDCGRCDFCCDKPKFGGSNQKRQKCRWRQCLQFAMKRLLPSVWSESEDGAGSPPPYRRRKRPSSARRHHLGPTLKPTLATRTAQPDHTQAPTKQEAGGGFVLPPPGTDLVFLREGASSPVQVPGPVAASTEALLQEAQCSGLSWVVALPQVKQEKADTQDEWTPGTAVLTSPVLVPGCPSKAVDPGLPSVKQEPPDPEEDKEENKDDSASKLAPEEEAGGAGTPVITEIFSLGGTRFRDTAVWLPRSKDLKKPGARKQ

[4] = molecular target: c-Fos (UniProt P01100 1-380); experiment: as above; details: protein: recombinant; tags: His6 (pET22b); chain copies: 2
Sequence of c-Fos (P01100 whole entry): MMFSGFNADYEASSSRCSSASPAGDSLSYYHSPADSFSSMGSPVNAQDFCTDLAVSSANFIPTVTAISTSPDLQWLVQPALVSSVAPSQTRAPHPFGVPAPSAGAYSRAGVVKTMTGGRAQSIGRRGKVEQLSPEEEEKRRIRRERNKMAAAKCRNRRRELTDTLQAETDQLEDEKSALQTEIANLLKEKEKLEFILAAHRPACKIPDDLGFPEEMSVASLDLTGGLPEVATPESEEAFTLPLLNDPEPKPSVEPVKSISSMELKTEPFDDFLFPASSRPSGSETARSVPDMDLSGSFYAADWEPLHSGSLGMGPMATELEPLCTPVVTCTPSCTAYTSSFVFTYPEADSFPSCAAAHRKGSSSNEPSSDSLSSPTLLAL

CC(=O)Oc1ccccc1C(=O)O [aspirin]
DARTS (Pronase proteolysis, western blot) [1]: aspirin can specifically bind to SDHA and SDHC, but not SDHB and SDHD | DARTS (Pronase proteolysis, western blot) [2]: aspirin can specifically bind to SDHA and SDHC, but not SDHB and SDHD

B1: SDHB promoter -1135 CpG, methylated (dsDNA)
DNA 1: ACTCAAGCCAGTAAGCGTCAGAGATGAATA
DNA 2: TATTCATCTCTGACGCTTACTGGCTTGAGT
modifications: 5mC at C16 of strand 1; methylation of the complement not stated
binding result [3]: binds

B2: SDHB promoter c-Fos binding region (dsDNA)
DNA 1: ACAGAAAGGGCTGACTCAAGCCAGTAAGCG
DNA 2: CGCTTACTGGCTTGAGTCAGCCCTTTCTGT
binding result [4]: binds

B3: SDHB promoter -1172/-1165 CpG, methylated (dsDNA)
DNA 1: GGCAAGCTGCACGGTATGCGACAGAAAGGG
DNA 2: CCCTTTCTGTCGCATACCGTGCAGCTTGCC
modifications: 5mC at C12 and C19 of strand 1; methylation of the complement not stated
binding result [3]: binds
